T1: CAPRIN-1 protein expressed on the membrane surface of human cancer cells (human, UniProt Q14444 2-709)
T1 sequence (looked up): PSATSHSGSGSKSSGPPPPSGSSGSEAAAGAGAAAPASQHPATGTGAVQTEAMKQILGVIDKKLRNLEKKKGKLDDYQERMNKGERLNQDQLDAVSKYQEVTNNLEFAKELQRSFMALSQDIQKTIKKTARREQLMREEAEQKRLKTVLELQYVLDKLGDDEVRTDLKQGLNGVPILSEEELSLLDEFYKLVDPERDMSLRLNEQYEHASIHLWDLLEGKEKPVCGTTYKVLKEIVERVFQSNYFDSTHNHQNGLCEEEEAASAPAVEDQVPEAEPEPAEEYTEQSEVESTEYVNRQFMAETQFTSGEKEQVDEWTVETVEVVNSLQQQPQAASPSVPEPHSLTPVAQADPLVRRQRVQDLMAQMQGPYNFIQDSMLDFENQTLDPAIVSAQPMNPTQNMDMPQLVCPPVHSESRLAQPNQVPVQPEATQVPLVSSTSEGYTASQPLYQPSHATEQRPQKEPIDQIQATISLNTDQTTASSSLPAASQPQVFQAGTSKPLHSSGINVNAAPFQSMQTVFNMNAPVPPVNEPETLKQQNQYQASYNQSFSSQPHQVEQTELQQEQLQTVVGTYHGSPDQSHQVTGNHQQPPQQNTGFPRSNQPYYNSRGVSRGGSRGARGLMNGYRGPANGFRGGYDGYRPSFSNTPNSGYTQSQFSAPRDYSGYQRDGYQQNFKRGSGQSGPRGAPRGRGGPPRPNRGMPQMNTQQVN


Target: T1, CAPRIN-1 protein expressed on the …
Assay: cell-based or functional assay

Row | Binder | ADCC cytotoxic activity (51Cr release) on 22Rv1 | ADCC cytotoxic activity (51Cr release) on A-673 | ADCC cytotoxic activity (51Cr release) on BT-474 | ADCC cytotoxic activity (51Cr release) on Caki-2 | ADCC cytotoxic activity (51Cr release) on FaDu | ADCC cytotoxic activity (51Cr release) on G-361 | ADCC cytotoxic activity (51Cr release) on HEC-1-A | ADCC cytotoxic activity (51Cr release) on HT-29 | ADCC cytotoxic activity (51Cr release) on HT-1080 | ADCC cytotoxic activity (51Cr release) on HT-1376 | ADCC cytotoxic activity (51Cr release) on Hep3B | ADCC cytotoxic activity (51Cr release) on IM-9 | ADCC cytotoxic activity (51Cr release) on MDA-MB-361 | ADCC cytotoxic activity (51Cr release) on NCI-H2452 | ADCC cytotoxic activity (51Cr release) on NCI-N87 | ADCC cytotoxic activity (51Cr release) on NT/D1 | ADCC cytotoxic activity (51Cr release) on OCI-AML5 | ADCC cytotoxic activity (51Cr release) on OE33 | ADCC cytotoxic activity (51Cr release) on Panc10.5 | ADCC cytotoxic activity (51Cr release) on QG56 | other results
1 | humanized antibody #7 (antibody, V domains shown) VH: EVQLVESGGGLVQPGGSLRLSCAASGFSLSSHSLGWVRQAPGKGLEWIGDIRSGGSAYYANWAKGRFTISRDNSKNTLYLQMNSLRAEDTAVYYCTRTNGPSDLTNRLDLWGQGTLVTVSS VL: QVLTQSPSSLSASVGDRVTINCQASQSLYNNENLAWFQQKPGKVPKRLIYGASTLASGVSSRFSGSGSGTEFTLTISSLQCEDFAIYYCLGEFSCGSADCFAFGGGTKVEIK | ≥ 49% | ≥ 50% | ≥ 54% | ≥ 37% | ≥ 50% | ≥ 25% | ≥ 52% | ≥ 43% | ≥ 30% | ≥ 45% | ≥ 28% | ≥ 35% | ≥ 52% | ≥ 35% | ≥ 45% | ≥ 37% | ≥ 20% | ≥ 35% | ≥ 35% | ≥ 46% | ADCC cytotoxic activity (51Cr release) on RD-ES: ≥ 48%; ADCC cytotoxic activity (51Cr release) on RPM11666: ≥ 40%; ADCC cytotoxic activity (51Cr release) on Ramos: ≥ 20%; ADCC cytotoxic activity (51Cr release) on SKOV3: ≥ 35%; ADCC cytotoxic activity (51Cr release) on T24: ≥ 36%; ADCC cytotoxic activity (51Cr release) on TGBC14TKB: ≥ 35%; ADCC cytotoxic activity (51Cr release) on TT: ≥ 42%; ADCC cytotoxic activity (51Cr release) on U-87MG: ≥ 36%
2 | humanized antibody #6 (antibody, V domains shown) VH: EVQLVESGGGLVQPGGSLRLSCAASGFSLSSHSLGWVRQAPGKGLEWIGDIRSGGSAYYANWAKGRFTISRDNSKNTLYLQMNSLRAEDTAVYFCTRTNGPSDLTNRLDLWGQGTLVTVSS VL: QVLTQSPSSLSASVGDRVTINCQASQSLYNNENLAWFQQKPGKVPKRLIYGASTLASGVSSRFSGSGSGTEFTLTISSLQCEDFAIYYCLGEFSCGSADCFAFGGGTKVEIK | ≥ 49% | ≥ 50% | ≥ 54% | ≥ 37% | ≥ 50% | ≥ 25% | ≥ 52% | ≥ 43% | ≥ 30% | ≥ 45% | ≥ 28% | ≥ 35% | ≥ 52% | ≥ 35% | ≥ 45% | ≥ 37% | ≥ 20% | ≥ 35% | ≥ 35% | ≥ 46% | ADCC cytotoxic activity (51Cr release) on RD-ES: ≥ 48%; ADCC cytotoxic activity (51Cr release) on RPM11666: ≥ 40%; ADCC cytotoxic activity (51Cr release) on Ramos: ≥ 20%; ADCC cytotoxic activity (51Cr release) on SKOV3: ≥ 35%; ADCC cytotoxic activity (51Cr release) on T24: ≥ 36%; ADCC cytotoxic activity (51Cr release) on TGBC14TKB: ≥ 35%; ADCC cytotoxic activity (51Cr release) on TT: ≥ 42%; ADCC cytotoxic activity (51Cr release) on U-87MG: ≥ 36%
